Reference: US20230407373A1 (priority 2020, published 2023)
Read-outs that look alike come from different tables or passages of the source.

What was measured:
Type in all cases: binding
SARS-CoV-2 gRNA = conditions: for target (unweighted spectral count of the protein in the RNP capture): LC-MS/MS, Probe I sample (first 199 lines of Table 2)
[1] = tested on: SARS-CoV-2 gRNA and sgRNAs; conditions: for target (unweighted spectral count in RNP capture): Probe II capture, LC-MS/MS LFQ; for background (unweighted spectral count in control): no-probe control pull-down, used as background for Probe II
HCoV-OC43 gRNA and sgRNA = conditions: for target (spectral count) / background (spectral count): type s_36_m, Probe II; for target (spectral count): HCoV-OC43-infected HCT-8 cells; for background (spectral count): uninfected-probe control
gRNA of HCoV-OC43 = tested on: gRNA of HCoV-OC43
[2] = 36 hpi, type n_36_v, tested against no-probe control, FDR<10%
[3] = OC43 Probe II, 24 hpi (type n_24_v), infected cells, tested against no-probe control
[4] = 24 hpi, type n_24_v, tested against no-probe control, FDR<10%
[5] = OC43 Probe II, 12 hpi (type n_12_v), infected cells, tested against no-probe control

B1: DDX17 (protein, UniProt Q92841 1-729, looked up)
Probable ATP-dependent RNA …: MPTGFVAPILCVLLPSPTREAATVASATGDSASERESAAPAAAPTAEAPPPSVVTRPEPQALPSPAIRAPLPDLYPFGTMRGGGFGDRDRDRDRGGFGARGGGGLPPKKFGNPGERLRKKKWDLSELPKFEKNFYVEHPEVARLTPYEVDELRRKKEITVRGGDVCPKPVFAFHHANFPQYVMDVLMDQHFTEPTPIQCQGFPLALSGRDMVGIAQTGSGKTLAYLLPAIVHINHQPYLERGDGPICLVLAPTRELAQQVQQVADDYGKCSRLKSTCIYGGAPKGPQIRDLERGVEICIATPGRLIDFLESGKTNLRRCTYLVLDEADRMLDMGFEPQIRKIVDQIRPDRQTLMWSATWPKEVRQLAEDFLRDYTQINVGNLELSANHNILQIVDVCMESEKDHKLIQLMEEIMAEKENKTIIFVETKRRCDDLTRRMRRDGWPAMCIHGDKSQPERDWVLNEFRSGKAPILIATDVASRGLDVEDVKFVINYDYPNSSEDYVHRIGRTARSTNKGTAYTFFTPGNLKQARELIKVLEEANQAINPKLMQLVDHRGGGGGGGGRSRYRTTSSANNPNLMYQDECDRRLRGVKDGGRRDSASYRDRSETDRAGYANGSGYGSPNSAFGAQAGQYTYGQGTYGAAAYGTSSYTAQEYGAGTYGASSTTSTGRSSQSSSQQFSGIGRSGQQPQPLMSQQFAQPPGATNMIGYMGQTAYQYPPPPPPPPPSRK
SARS-CoV-2 gRNA
  target (unweighted spectral count of the protein in the RNP capture): 24
[1]
  target (unweighted spectral count in RNP capture): 15
  background (unweighted spectral count in control): 1
HCoV-OC43 gRNA and sgRNA; [2]
  target (unweighted spectral count, OC43 Probe II capture): 17
HCoV-OC43 gRNA and sgRNA; [3]
  target (unweighted spectral count): 9

B2: MAP4 (protein, UniProt P27816 2-1152, looked up)
Microtubule-associated …: ADLSLADALTEPSPDIEGEIKRDFIATLEAEAFDDVVGETVGKTDYIPLLDVDEKTGNSESKKKPCSETSQIEDTPSSKPTLLANGGHGVEGSDTTGSPTEFLEEKMAYQEYPNSQNWPEDTNFCFQPEQVVDPIQTDPFKMYHDDDLADLVFPSSATADTSIFAGQNDPLKDSYGMSPCNTAVVPQGWSVEALNSPHSESFVSPEAVAEPPQPTAVPLELAKEIEMASEERPPAQALEIMMGLKTTDMAPSKETEMALAKDMALATKTEVALAKDMESPTKLDVTLAKDMQPSMESDMALVKDMELPTEKEVALVKDVRWPTETDVSSAKNVVLPTETEVAPAKDVTLLKETERASPIKMDLAPSKDMGPPKENKKETERASPIKMDLAPSKDMGPPKENKIVPAKDLVLLSEIEVAQANDIISSTEISSAEKVALSSETEVALARDMTLPPETNVILTKDKALPLEAEVAPVKDMAQLPETEIAPAKDVAPSTVKEVGLLKDMSPLSETEMALGKDVTPPPETEVVLIKNVCLPPEMEVALTEDQVPALKTEAPLAKDGVLTLANNVTPAKDVPPLSETEATPVPIKDMEIAQTQKGISEDSHLESLQDVGQSAAPTFMISPETVTGTGKKCSLPAEEDSVLEKLGERKPCNSQPSELSSETSGIARPEEGRPVVSGTGNDITTPPNKELPPSPEKKTKPLATTQPAKTSTSKAKTQPTSLPKQPAPTTIGGLNKKPMSLASGLVPAAPPKRPAVASARPSILPSKDVKPKPIADAKAPEKRASPSKPASAPASRSGSKSTQTVAKTTTAAAVASTGPSSRSPSTLLPKKPTAIKTEGKPAEVKKMTAKSVPADLSRPKSTSTSSMKKTTTLSGTAPAAGVVPSRVKATPMPSRPSTTPFIDKKPTSAKPSSTTPRLSRLATNTSAPDLKNVRSKVGSTENIKHQPGGGRAKVEKKTEAAATTRKPESNAVTKTAGPIASAQKQPAGKVQIVSKKVSYSHIQSKCGSKDNIKHVPGGGNVQIQNKKVDISKVSSKCGSKANIKHKPGGGDVKIESQKLNFKEKAQAKVGSLDNVGHLPAGGAVKTEGGGSEAPLCPGPPAGEEPAISEAAPEAGAPTSASGLNGHPTLSGGGDQREAQTLDSQIQETSI
SARS-CoV-2 gRNA
  target (unweighted spectral count of the protein in the RNP capture): 14
[1]
  background (unweighted spectral count in control): 1
HCoV-OC43 gRNA and sgRNA; [4]
  target (unweighted spectral count, OC43 Probe II capture): 8
HCoV-OC43 gRNA and sgRNA; [5]
  target (unweighted spectral count): 5
HCoV-OC43 gRNA and sgRNA; type n_36_v, 36 hpi, OC43 Probe II capture on infected cells
  target (unweighted spectral count, OC43 Probe II): 11
HCoV-OC43 gRNA and sgRNA; type n_36_v, 36 hpi, no-probe control on infected cells
  background (unweighted spectral count, no-probe control): 4

B3: SRSF7 (protein, UniProt Q16629 1-238, looked up)
Serine/arginine-rich splicing …: MSRYGRYGGETKVYVGNLGTGAGKGELERAFSYYGPLRTVWIARNPPGFAFVEFEDPRDAEDAVRGLDGKVICGSRVRVELSTGMPRRSRFDRPPARRPFDPNDRCYECGEKGHYAYDCHRYSRRRRSRSRSRSHSRSRGRRYSRSRSRSRGRRSRSASPRRSRSISLRRSRSASLRRSRSGSIKGSRYFQSPSRSRSRSRSISRPRSSRSKSRSPSPKRSRSPSGSPRRSASPERMD
SARS-CoV-2 gRNA
  target (unweighted spectral count of the protein in the RNP capture): 21
[1]
  target (unweighted spectral count in RNP capture): 16
  background (unweighted spectral count in control): 1
HCoV-OC43 gRNA and sgRNA
  background (unweighted spectral count, no-probe control): 4
  target (unweighted spectral count): 5
  target (unweighted spectral count, OC43 Probe II capture): 14
  target (unweighted spectral count, OC43 Probe II): 19

B4: LRRC47: host protein, UniProt Q8N1G4 (protein, UniProt Q8N1G4 2-583, looked up)
Leucine-rich …: AAAAVSESWPELELAERERRRELLLTGPGLEERVRAAGGQLPPRLFTLPLLHYLEVSGCGSLRAPGPGLAQGLPQLHSLVLRRNALGPGLSPELGPLPALRVLDLSGNALEALPPGQGLGPAEPPGLPQLQSLNLSGNRLRELPADLARCAPRLQSLNLTGNCLDSFPAELFRPGALPLLSELAAADNCLRELSPDIAHLASLKTLDLSNNQLSEIPAELADCPKLKEINFRGNKLRDKRLEKMVSGCQTRSILEYLRVGGRGGGKGKGRAEGSEKEESRRKRRERKQRREGGDGEEQDVGDAGRLLLRVLHVSENPVPLTVRVSPEVRDVRPYIVGAVVRGMDLQPGNALKRFLTSQTKLHEDLCEKRTAATLATHELRAVKGPLLYCARPPQDLKIVPLGRKEAKAKELVRQLQLEAEEQRKQKKRQSVSGLHRYLHLLDGNENYPCLVDADGDVISFPPITNSEKTKVKKTTSDLFLEVTSATSLQICKDVMDALILKMAEMKKYTLENKEEGSLSDTEADAVSGQLPDPTTNPSAGKDGPSLLVVEQVRVVDLEGSLKVVYPSKADLATAPPHVTVVR
SARS-CoV-2 gRNA
  target (unweighted spectral count of the protein in the RNP capture): 14
[1]
  target (unweighted spectral count in RNP capture): 13
  background (unweighted spectral count in control): 1
HCoV-OC43 gRNA and sgRNA; [4]
  target (unweighted spectral count, OC43 Probe II capture): 4
HCoV-OC43 gRNA and sgRNA; 36 hpi
  target (spectral count): 7
  background (spectral count): 1

B5: MBNL1 (protein, UniProt Q9NR56 1-388, looked up)
Muscleblind-like protein 1: MAVSVTPIRDTKWLTLEVCREFQRGTCSRPDTECKFAHPSKSCQVENGRVIACFDSLKGRCSRENCKYLHPPPHLKTQLEINGRNNLIQQKNMAMLAQQMQLANAMMPGAPLQPVPMFSVAPSLATNASAAAFNPYLGPVSPSLVPAEILPTAPMLVTGNPGVPVPAAAAAAAQKLMRTDRLEVCREYQRGNCNRGENDCRFAHPADSTMIDTNDNTVTVCMDYIKGRCSREKCKYFHPPAHLQAKIKAAQYQVNQAAAAQAAATAAAMTQSAVKSLKRPLEATFDLGIPQAVLPPLPKRPALEKTNGATAVFNTGIFQYQQALANMQLQQHTAFLPPVPMVHGATPATVSAATTSATSVPFAATATANQIPIISAEHLTSHKYVTQM
SARS-CoV-2 gRNA
  target (unweighted spectral count of the protein in the RNP capture): 19
[1]
  target (unweighted spectral count in RNP capture): 32
  background (unweighted spectral count in control): 1
HCoV-OC43 gRNA and sgRNA; [5]
  target (unweighted spectral count): 5

B6: PABPC4: host protein, UniProt Q13310 (protein, UniProt Q13310 1-644, looked up)
Polyadenylate-binding protein …: MNAAASSYPMASLYVGDLHSDVTEAMLYEKFSPAGPVLSIRVCRDMITRRSLGYAYVNFQQPADAERALDTMNFDVIKGKPIRIMWSQRDPSLRKSGVGNVFIKNLDKSIDNKALYDTFSAFGNILSCKVVCDENGSKGYAFVHFETQEAADKAIEKMNGMLLNDRKVFVGRFKSRKEREAELGAKAKEFTNVYIKNFGEEVDDESLKELFSQFGKTLSVKVMRDPNGKSKGFGFVSYEKHEDANKAVEEMNGKEISGKIIFVGRAQKKVERQAELKRKFEQLKQERISRYQGVNLYIKNLDDTIDDEKLRKEFSPFGSITSAKVMLEDGRSKGFGFVCFSSPEEATKAVTEMNGRIVGSKPLYVALAQRKEERKAHLTNQYMQRVAGMRALPANAILNQFQPAAGGYFVPAVPQAQGRPPYYTPNQLAQMRPNPRWQQGGRPQGFQGMPSAIRQSGPRPTLRHLAPTGSECPDRLAMDFGGAGAAQQGLTDSCQSGGVPTAVQNLAPRAAVAAAAPRAVAPYKYASSVRSPHPAIQPLQAPQPAVHVQGQEPLTASMLAAAPPQEQKQMLGERLFPLIQTMHSNLAGKITGMLLEIDNSELLHMLESPESLRSKVDEAVAVLQAHHAKKEAAQKVGAVAAATS
SARS-CoV-2 gRNA
  enrichment in SARS-CoV-2 Probe I RNP capture: found in the SARS-CoV-2 experiments
gRNA of HCoV-OC43; type g_36_m, HCoV-OC43-infected HCT-8 cells, 36 hpi, Probe I
  target (spectral count): 12
gRNA of HCoV-OC43; type g_36_m, uninfected-probe control, 36 hpi, Probe I
  background (spectral count): 2
gRNA of HCoV-OC43; type n_48_v: 48 hours post-infection, infected cells, OC43 Probe I, unweighted spectral count
  target (spectral count, OC43 Probe I RNP capture): 11
gRNA of HCoV-OC43; type n_48_v: 48 hours post-infection, no-probe control on infected cells
  background (spectral count, no-probe control): 1
[1]
  enrichment in SARS-CoV-2 Probe II RNP capture: found in the SARS-CoV-2 experiments
HCoV-OC43 gRNA and sgRNA; [2]
  target (unweighted spectral count, OC43 Probe II capture): 11
HCoV-OC43 gRNA and sgRNA; [3]
  target (unweighted spectral count): 6
HCoV-OC43 gRNA and sgRNA; type n_48_v, 48 hpi, OC43 Probe II capture on infected cells
  target (unweighted spectral count, OC43 Probe II): 11
HCoV-OC43 gRNA and sgRNA; type n_48_v, 48 hpi, no-probe control on infected cells
  background (unweighted spectral count, no-probe control): 1
HCoV-OC43 gRNA and sgRNA; 36 hpi
  target (spectral count): 11
  background (spectral count): 1
